Test results from patent publication US20240173442A1, “COMBINATION THERAPY” (Hoffmann-La Roche Inc., priority 2021, published 2024).

Key:
[1] = test system: SC BxPC3 tumors; experiment: Protocol 189: biodistribution of 212Pb-DOTAM after bi-paratopic (T84.66 and CH1A1A) CEA-split-DOTAM-VH/VL pairs; format: in vivo, SCID mice; details: 6 hours after injection
Procedure: This bi-paratopic combination precludes formation of the full Pb-DOTAM binder on soluble CEA that only expresses one of the two epitopes (e.g. T84.66), thereby mitigating potential adverse effects thereof, such as increased circulating radioactivity and associated radiation-induced toxicity, and decreased efficacy from competition with off-tumor targets.
(§1) The in vivo distribution of ^212Pb-DOTAM was assessed 6 hours after the radioactive injection.
Solid xenografts were established in each SCID mouse on study day 0 by SC injection of 5×10^6 cells (passage 31) in RPMI/Matrigel into the right flank. Fourteen days after tumor cell injection, mice were sorted into experimental groups with an average tumor volume of 343 mm^3. The ^212Pb-DOTAM was injected on day 22 after inoculation; the average tumor volume had reached 557 mm^3 on day 21.
All mice were sacrificed and necropsied 6 hours after injection of ^212Pb-DOTAM, and the following organs and tissues harvested for measurement of radioactive content: blood, skin, spleen, pancreas, kidneys, liver, muscle, tail, and tumor.

[2] = test system: SC BxPC3 tumors; experiment: Protocol 185: biodistribution of 212Pb-DOTAM after CEA-split-DOTAM-VH/VL targeting T84.66 or CH1A1A; format: in vivo, SCID mice; details: 6 hours after injection
Procedure: as §1
Solid xenografts were established in each SCID mouse on study day 0 by SC injection of 5×10^6 cells (passage 27) in RPMI/Matrigel into the right flank. Twenty-two days after tumor cell injection, mice were sorted into experimental groups with an average tumor volume of 224 mm^3. The ^212Pb-DOTAM was injected on day 28 after inoculation, at which point the average tumor volume had reached 385 mm^3.
All mice were sacrificed and necropsied 6 hours after injection of ^212Pb-DOTAM, and the following organs and tissues harvested for measurement of radioactive content: blood, skin, spleen, pancreas, kidneys, liver, muscle, tail, and tumor. Collected tumors were split in two pieces: one was measured for radioactive content, and the other put in a cryomold containing Tissue-Tek® optimum cutting temperature (OCT) embedding medium, and put on dry ice for rapid freezing. Frozen samples in OCT were maintained at −80° C. before cryosectioning, immunofluorescence staining, and analysis using a Zeiss Axio Scope.A1 modular microscope.

B1: CH1A1A: CEA-split-DOTAM-VH/VL pair targeting CH1A1A: P1AF0171 (VH-AST) plus P1AD8592 (VL) (antibody, V domains shown)
VH: QVQLVQSGAEVKKPGASVKVSCKASGYTFTEFGMNWVRQAPGQGLEWMGWINTKTGEATYVEEFKGRVTFTTDTSTSTAYMELRSLRSDDTAVYYCARWDFAYYVEAMDYWGQGTTVTVSS
VL: DIQMTQSPSSLSASVGDRVTITCKASAAVGTYVAWYQQKPGKAPKLLIYSASYRKRGVPSRFSGSGSGTDFTLTISSLQPEDFATYYCHQYYTYPLFTFGQGTKLEIK
modifications: split DOTAM-binding domains and constant regions lack entries
With B1 the “tumor accumulation of ^212Pb” value [1] was 37 % ID/g and the “tumor accumulation of ^212Pb” value [2] was 40 % ID/g.
